Measured values: patent publication US20140087995A1 (published 2014)
Numbered stars: 1 amine (or outer) side, 2 acyl side, 3 side chain; on linkers, the order of the positions; unused ones are H or OH. Bridge positions count the residues as written; N and C are the ends. Side chains are listed from the residue outwards. Ends that are not written are not given here. * marks the point of attachment. C20 diacid = O=C(O)CCCCCCCCCCCCCCCCCCC(=O)*; γGlu = O=C(O)[C@H](CCC(=O)[*:2])N[*:1]; AEEA = NCCOCCOCC(=O)O

T1: human amylin receptor (amylin 3(a) receptor: human calcitonin receptor with RAMP-3) (human, UniProt P30988 25-474; O60896 24-148)
T1 construct: whole, on cells; also called hAmylin-R; hAmylinR
T1 sequence (looked up) 1: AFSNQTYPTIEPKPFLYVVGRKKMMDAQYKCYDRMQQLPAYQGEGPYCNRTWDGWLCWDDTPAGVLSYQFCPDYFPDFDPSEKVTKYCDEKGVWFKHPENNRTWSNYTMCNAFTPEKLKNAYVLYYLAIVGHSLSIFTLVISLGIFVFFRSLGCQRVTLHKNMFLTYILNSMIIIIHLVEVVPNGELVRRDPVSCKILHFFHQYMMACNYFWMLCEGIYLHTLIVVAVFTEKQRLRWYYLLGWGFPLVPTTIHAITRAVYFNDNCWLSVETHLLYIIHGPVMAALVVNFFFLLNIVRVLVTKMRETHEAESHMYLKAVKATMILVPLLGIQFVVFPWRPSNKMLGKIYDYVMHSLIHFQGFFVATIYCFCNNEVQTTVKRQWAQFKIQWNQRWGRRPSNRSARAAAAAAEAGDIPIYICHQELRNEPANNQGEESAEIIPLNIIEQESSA
T1 sequence (looked up) 2: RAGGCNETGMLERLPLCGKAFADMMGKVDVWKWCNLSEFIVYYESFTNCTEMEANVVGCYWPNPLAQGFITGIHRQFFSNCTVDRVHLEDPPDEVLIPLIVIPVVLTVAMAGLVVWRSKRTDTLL

B1: N^ε1-[2-[2-[2-[[(4S)-4-carboxy-4-(19-carboxynonadecanoylamino)butanoyl]amino]ethoxy]ethoxy]acetyl]-[Arg17,Pro21,Pro27,Pro29,Pro34]-h-amylin (peptide)
peptide: K([AEEA-γGlu-C20 diacid])CNTATCATQRLANFLRHSSPNFGAIPSPTNVGPNTY-NH2
modifications: disulfide 2-7; N-terminus assumed
SMILES: CC[C@H](C)[C@H](NC(=O)[C@H](C)NC(=O)CNC(=O)[C@H](Cc1ccccc1)NC(=O)[C@H](CC(N)=O)NC(=O)[C@@H]1CCCN1C(=O)[C@H](CO)NC(=O)[C@H](CO)NC(=O)[C@H](Cc1c[nH]cn1)NC(=O)[C@H](CCCNC(=N)N)NC(=O)[C@H](CC(C)C)NC(=O)[C@H](Cc1ccccc1)NC(=O)[C@H](CC(N)=O)NC(=O)[C@H](C)NC(=O)[C@H](CC(C)C)NC(=O)[C@H](CCCNC(=N)N)NC(=O)[C@H](CCC(N)=O)NC(=O)[C@@H](NC(=O)[C@H](C)NC(=O)[C@@H]1CSSC[C@H](NC(=O)[C@@H](N)CCCCNC(=O)COCCOCCNC(=O)CC[C@H](NC(=O)CCCCCCCCCCCCCCCCCCC(=O)O)C(=O)O)C(=O)N[C@@H](CC(N)=O)C(=O)N[C@@H]([C@@H](C)O)C(=O)N[C@@H](C)C(=O)N[C@@H]([C@@H](C)O)C(=O)N1)[C@@H](C)O)C(=O)N1CCC[C@H]1C(=O)N[C@@H](CO)C(=O)N1CCC[C@H]1C(=O)N[C@H](C(=O)N[C@@H](CC(N)=O)C(=O)N[C@H](C(=O)NCC(=O)N1CCC[C@H]1C(=O)N[C@@H](CC(N)=O)C(=O)N[C@H](C(=O)N[C@@H](Cc1ccc(O)cc1)C(N)=O)[C@@H](C)O)C(C)C)[C@@H](C)O
notes: also called 56; compound 56
B2: N^ε1-[2-[2-[2-[[(4S)-4-carboxy-4-(19-carboxynonadecanoylamino)butanoyl]amino]ethoxy]ethoxy]acetyl]-[Arg17,Pro21,Pro27,Pro31,His35]-h-amylin (peptide)
peptide: K([AEEA-γGlu-C20 diacid])CNTATCATQRLANFLRHSSPNFGAIPSSTPVGSHTY-NH2
modifications: disulfide 2-7; N-terminus assumed
SMILES: CC[C@H](C)[C@H](NC(=O)[C@H](C)NC(=O)CNC(=O)[C@H](Cc1ccccc1)NC(=O)[C@H](CC(N)=O)NC(=O)[C@@H]1CCCN1C(=O)[C@H](CO)NC(=O)[C@H](CO)NC(=O)[C@H](Cc1c[nH]cn1)NC(=O)[C@H](CCCNC(=N)N)NC(=O)[C@H](CC(C)C)NC(=O)[C@H](Cc1ccccc1)NC(=O)[C@H](CC(N)=O)NC(=O)[C@H](C)NC(=O)[C@H](CC(C)C)NC(=O)[C@H](CCCNC(=N)N)NC(=O)[C@H](CCC(N)=O)NC(=O)[C@@H](NC(=O)[C@H](C)NC(=O)[C@@H]1CSSC[C@H](NC(=O)[C@@H](N)CCCCNC(=O)COCCOCCNC(=O)CC[C@H](NC(=O)CCCCCCCCCCCCCCCCCCC(=O)O)C(=O)O)C(=O)N[C@@H](CC(N)=O)C(=O)N[C@@H]([C@@H](C)O)C(=O)N[C@@H](C)C(=O)N[C@@H]([C@@H](C)O)C(=O)N1)[C@@H](C)O)C(=O)N1CCC[C@H]1C(=O)N[C@@H](CO)C(=O)N[C@@H](CO)C(=O)N[C@H](C(=O)N1CCC[C@H]1C(=O)N[C@H](C(=O)NCC(=O)N[C@@H](CO)C(=O)N[C@@H](Cc1c[nH]cn1)C(=O)N[C@H](C(=O)N[C@@H](Cc1ccc(O)cc1)C(N)=O)[C@@H](C)O)C(C)C)[C@@H](C)O
notes: also called 57; compound 57
B3: N^ε1-[2-[2-[2-[[(4S)-4-carboxy-4-(19-carboxynonadecanoylamino)butanoyl]amino]ethoxy]ethoxy]acetyl]-[Arg17,Pro21,Pro27,Pro31]-h-amylin (peptide)
peptide: K([AEEA-γGlu-C20 diacid])CNTATCATQRLANFLRHSSPNFGAIPSSTPVGSNTY-NH2
modifications: disulfide 2-7; N-terminus assumed
SMILES: CC[C@H](C)[C@H](NC(=O)[C@H](C)NC(=O)CNC(=O)[C@H](Cc1ccccc1)NC(=O)[C@H](CC(N)=O)NC(=O)[C@@H]1CCCN1C(=O)[C@H](CO)NC(=O)[C@H](CO)NC(=O)[C@H](Cc1c[nH]cn1)NC(=O)[C@H](CCCNC(=N)N)NC(=O)[C@H](CC(C)C)NC(=O)[C@H](Cc1ccccc1)NC(=O)[C@H](CC(N)=O)NC(=O)[C@H](C)NC(=O)[C@H](CC(C)C)NC(=O)[C@H](CCCNC(=N)N)NC(=O)[C@H](CCC(N)=O)NC(=O)[C@@H](NC(=O)[C@H](C)NC(=O)[C@@H]1CSSC[C@H](NC(=O)[C@@H](N)CCCCNC(=O)COCCOCCNC(=O)CC[C@H](NC(=O)CCCCCCCCCCCCCCCCCCC(=O)O)C(=O)O)C(=O)N[C@@H](CC(N)=O)C(=O)N[C@@H]([C@@H](C)O)C(=O)N[C@@H](C)C(=O)N[C@@H]([C@@H](C)O)C(=O)N1)[C@@H](C)O)C(=O)N1CCC[C@H]1C(=O)N[C@@H](CO)C(=O)N[C@@H](CO)C(=O)N[C@H](C(=O)N1CCC[C@H]1C(=O)N[C@H](C(=O)NCC(=O)N[C@@H](CO)C(=O)N[C@@H](CC(N)=O)C(=O)N[C@H](C(=O)N[C@@H](Cc1ccc(O)cc1)C(N)=O)[C@@H](C)O)C(C)C)[C@@H](C)O
notes: also called 49; compound 49
B4: N^ε1-[2-[2-[2-[[(4S)-4-carboxy-4-(19-carboxynonadecanoylamino)butanoyl]amino]ethoxy]ethoxy]acetyl]-[Arg17,Pro21,Pro27,Pro34,His35]-h-amylin (peptide)
peptide: K([AEEA-γGlu-C20 diacid])CNTATCATQRLANFLRHSSPNFGAIPSSTNVGPHTY-NH2
modifications: disulfide 2-7; N-terminus assumed
SMILES: CC[C@H](C)[C@H](NC(=O)[C@H](C)NC(=O)CNC(=O)[C@H](Cc1ccccc1)NC(=O)[C@H](CC(N)=O)NC(=O)[C@@H]1CCCN1C(=O)[C@H](CO)NC(=O)[C@H](CO)NC(=O)[C@H](Cc1c[nH]cn1)NC(=O)[C@H](CCCNC(=N)N)NC(=O)[C@H](CC(C)C)NC(=O)[C@H](Cc1ccccc1)NC(=O)[C@H](CC(N)=O)NC(=O)[C@H](C)NC(=O)[C@H](CC(C)C)NC(=O)[C@H](CCCNC(=N)N)NC(=O)[C@H](CCC(N)=O)NC(=O)[C@@H](NC(=O)[C@H](C)NC(=O)[C@@H]1CSSC[C@H](NC(=O)[C@@H](N)CCCCNC(=O)COCCOCCNC(=O)CC[C@H](NC(=O)CCCCCCCCCCCCCCCCCCC(=O)O)C(=O)O)C(=O)N[C@@H](CC(N)=O)C(=O)N[C@@H]([C@@H](C)O)C(=O)N[C@@H](C)C(=O)N[C@@H]([C@@H](C)O)C(=O)N1)[C@@H](C)O)C(=O)N1CCC[C@H]1C(=O)N[C@@H](CO)C(=O)N[C@@H](CO)C(=O)N[C@H](C(=O)N[C@@H](CC(N)=O)C(=O)N[C@H](C(=O)NCC(=O)N1CCC[C@H]1C(=O)N[C@@H](Cc1c[nH]cn1)C(=O)N[C@H](C(=O)N[C@@H](Cc1ccc(O)cc1)C(N)=O)[C@@H](C)O)C(C)C)[C@@H](C)O
notes: also called 58; compound 58
B5: N^ε1-[2-[2-[2-[[(4S)-4-carboxy-4-(19-carboxynonadecanoylamino)butanoyl]amino]ethoxy]ethoxy]acetyl]-[Arg17,Pro21,Pro27,Pro34]-h-amylin (peptide)
peptide: K([AEEA-γGlu-C20 diacid])CNTATCATQRLANFLRHSSPNFGAIPSSTNVGPNTY-NH2
modifications: disulfide 2-7; N-terminus assumed
SMILES: CC[C@H](C)[C@H](NC(=O)[C@H](C)NC(=O)CNC(=O)[C@H](Cc1ccccc1)NC(=O)[C@H](CC(N)=O)NC(=O)[C@@H]1CCCN1C(=O)[C@H](CO)NC(=O)[C@H](CO)NC(=O)[C@H](Cc1c[nH]cn1)NC(=O)[C@H](CCCNC(=N)N)NC(=O)[C@H](CC(C)C)NC(=O)[C@H](Cc1ccccc1)NC(=O)[C@H](CC(N)=O)NC(=O)[C@H](C)NC(=O)[C@H](CC(C)C)NC(=O)[C@H](CCCNC(=N)N)NC(=O)[C@H](CCC(N)=O)NC(=O)[C@@H](NC(=O)[C@H](C)NC(=O)[C@@H]1CSSC[C@H](NC(=O)[C@@H](N)CCCCNC(=O)COCCOCCNC(=O)CC[C@H](NC(=O)CCCCCCCCCCCCCCCCCCC(=O)O)C(=O)O)C(=O)N[C@@H](CC(N)=O)C(=O)N[C@@H]([C@@H](C)O)C(=O)N[C@@H](C)C(=O)N[C@@H]([C@@H](C)O)C(=O)N1)[C@@H](C)O)C(=O)N1CCC[C@H]1C(=O)N[C@@H](CO)C(=O)N[C@@H](CO)C(=O)N[C@H](C(=O)N[C@@H](CC(N)=O)C(=O)N[C@H](C(=O)NCC(=O)N1CCC[C@H]1C(=O)N[C@@H](CC(N)=O)C(=O)N[C@H](C(=O)N[C@@H](Cc1ccc(O)cc1)C(N)=O)[C@@H](C)O)C(C)C)[C@@H](C)O
notes: also called 50; compound 50
B6: N^ε1-[2-[2-[2-[[(4S)-4-carboxy-4-(19-carboxynonadecanoylamino)butanoyl]amino]ethoxy]ethoxy]acetyl]-[Gly14,Arg17,Pro21,Pro27,Pro31]-h-amylin (peptide)
peptide: K([AEEA-γGlu-C20 diacid])CNTATCATQRLAGFLRHSSPNFGAIPSSTPVGSNTY-NH2
modifications: disulfide 2-7; N-terminus assumed
SMILES: CC[C@H](C)[C@H](NC(=O)[C@H](C)NC(=O)CNC(=O)[C@H](Cc1ccccc1)NC(=O)[C@H](CC(N)=O)NC(=O)[C@@H]1CCCN1C(=O)[C@H](CO)NC(=O)[C@H](CO)NC(=O)[C@H](Cc1c[nH]cn1)NC(=O)[C@H](CCCNC(=N)N)NC(=O)[C@H](CC(C)C)NC(=O)[C@H](Cc1ccccc1)NC(=O)CNC(=O)[C@H](C)NC(=O)[C@H](CC(C)C)NC(=O)[C@H](CCCNC(=N)N)NC(=O)[C@H](CCC(N)=O)NC(=O)[C@@H](NC(=O)[C@H](C)NC(=O)[C@@H]1CSSC[C@H](NC(=O)[C@@H](N)CCCCNC(=O)COCCOCCNC(=O)CC[C@H](NC(=O)CCCCCCCCCCCCCCCCCCC(=O)O)C(=O)O)C(=O)N[C@@H](CC(N)=O)C(=O)N[C@@H]([C@@H](C)O)C(=O)N[C@@H](C)C(=O)N[C@@H]([C@@H](C)O)C(=O)N1)[C@@H](C)O)C(=O)N1CCC[C@H]1C(=O)N[C@@H](CO)C(=O)N[C@@H](CO)C(=O)N[C@H](C(=O)N1CCC[C@H]1C(=O)N[C@H](C(=O)NCC(=O)N[C@@H](CO)C(=O)N[C@@H](CC(N)=O)C(=O)N[C@H](C(=O)N[C@@H](Cc1ccc(O)cc1)C(N)=O)[C@@H](C)O)C(C)C)[C@@H](C)O
notes: also called 71; compound 71

Molecular target: T1, human amylin receptor (amylin 3(a) …)
Assay: SPA displacement of 125I-rat amylin, hAmylin 3(a) receptor membranes
In short: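 SPA beads + BHK amylin 3(a)/CRE-luc membranes, 35 ng/μL final; buffer 50 mM Hepes pH 7.4, 1 mM CaCl2, 5 mM MgCl₂, 0.1% OA, 0.02% Tween20. 120 min, 25° C, shaken; scintillation count. IC₅₀ by one-site binding competition fit, taken as receptor affinity.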

Row | IC50 [pM] | Binder
1 | 49 | B1
2 | 115 | B2
3 | 1190 | B3
4 | 88 | B4
5 | 38 | B5
6 | 48 | B6
